This series concerns the molecule itself. In words: self-assembly into virus-like particles, negative staining electron microscopy.

B1: Ring2 ORF1 protein expressed as a full-length protein in insect cells (other)
chain: MPYYYRRRRYNYRRPRWYGRGWIRRPFRRRFRRKRRVRPTYTTIPLKQWQPPYKRTCYIKGQDCLIYYSNLRLGMNSTMYEKSIVPVHWPGGGSFSVSMLTLDALYDIHKLCRNWWTSTNQDLPLVRYKGCKITFYQSTFTDYIVRIHTELPANSNKLTYPNTHPLMMMMSKYKHIIPSRQTRRKKKPYTKIFVKPPPQFENKWYFATDLYKIPLLQIHCTACNLQNPFVKPDKLSNNVTLWSLNTISIQNRNMSVDQGQSWPFKILGTQSFYFYFYTGANLPGDTTQIPVADLLPLTNPRINRPGQSLNEAKITDHITFTEYKNKFTNYWGNPFNKHIQEHLDMILYSLKSPEAIKNEWTTENMKWNQLNNAGTMALTPFNEPIFTQIQYNPDRDTGEDTQLYLLSNATGTGWDPPGIPELILEGFPLWLIYWGFADFQKNLKKVTNIDTNYMLVAKTKFTQKPGTFYLVILNDTFVEGNSPYEKQPLPEDNIKWYPQVQYQLEAQNKLLQTGPFTPNIQGQLSDNISMFYKFYFKWGGSPPKAINVENPAHQIQYPIPRNEHETTSLQSPGEAPESILYSFDYRHGNYTTTALSRISQDWALKDTVSKITEPDRQQLLKQALECLQISEETQEKKEKEVQQLISNLRQQQQLYRERIISLLKDQ
notes: also called Anellovirus ORF1 protein
As for B1, the binding result was “binds”.
